Holding throughout (assay): cell-based or functional assay
Assay [1] concerns the target subtilisin 309 variant S99SD + S99A + L217F + A228V + A230V (B. lentus) (UniProt P29600).
For assay [2], the target named is subtilisin 309 variant S99SE (B. lentus) (UniProt P29600).
The target in assay [3] is subtilisin 309 variant A98AT + Y167A + R170S + A194P (B. lentus) (UniProt P29600).
The target of assay [4] is subtilisin 309 variant S99SD + M222S (B. lentus) (UniProt P29600).
Assay [5] concerns the target subtilisin 309 variant S99SD + N76D + A194P + A230V (B. lentus) (UniProt P29600).
Assay [6] deals with subtilisin 309 variant S99SD + S99A + T143K (B. lentus) (UniProt P29600).
Assay [7] has as its target subtilisin 309 variant S99SD + S99A + A133E (B. lentus) (UniProt P29600).
The target of assay [8] is subtilisin 309 variant S99SQ + S99T (B. lentus) (UniProt P29600).
The target of assay [9] is subtilisin 309 variant S99SD + S99A + L217LP (B. lentus) (UniProt P29600).
Assay [10] addresses Savinase (subtilisin 309 from B. lentus) (B. lentus) (UniProt P29600).
For assay [11], the target named is subtilisin 309 variant S99SD + S99A + P129PR (B. lentus) (UniProt P29600).
The target in assay [12] is subtilisin 309 variant S99SD + S99A + P129PD (B. lentus) (UniProt P29600).
Assay [13] addresses subtilisin 309 variant S99SD + S99A + L42LN (B. lentus) (UniProt P29600).
Assay [14] addresses subtilisin 309 variant S99SD (B. lentus) (UniProt P29600).
The target of assay [15] is subtilisin 309 variant S99SN (B. lentus) (UniProt P29600).
In assay [16] the target is subtilisin 309 variant A98AI+A98G+S99H+G100S+S101A (B. lentus) (UniProt P29600).
The target in assay [17] is subtilisin 309 variant S99SR + S99T (B. lentus) (UniProt P29600).
The target in assay [18] is subtilisin 309 variant S99SD + S99A + S216SDP (B. lentus) (UniProt P29600).
The target of assay [19] is subtilisin 309 variant S99SD + S99A (B. lentus) (UniProt P29600).
For assay [20], the target named is subtilisin 309 variant S99SD + S99A + S216SP (B. lentus) (UniProt P29600).
For assay [21], the target named is subtilisin 309 variant S99SD + S99A + P131T (B. lentus) (UniProt P29600).

Where only a bound is given, the exact number is not on record here.

As to “trypsin inhibitor type IV-0 (Ovo-inhibitor) (from UniProt P10184 69-517)”, the Residual Activity (%) in [1] was 12%; in [2], 27%; in assay [3] it was 88%; in assay [4] it was 25%; in assay [5], 18.4%; in [6], 23%. Besides, the Residual Activity (%) was 39% in [7]; 25% in assay [8]; 97% in assay [9]; under 5% in assay [10]; 21% in assay [11]; 50% in assay [12]. The Residual Activity (%) in assay [13] amounted to 69.2%; in assay [14], 25%; in assay [15], 19%; in [16], 22%; in assay [17], 67.7%; in assay [18], 35%. The Residual Activity (%) in [19] worked out at 27.3%; in [20] it was 29.2%; in [21], 35.6%.

(Values after EP1244779B1.)
